Laboratory results: the RNAGym collection of RNA variant scans (doi:10.1101/gr.219683.116)

B1: mRNA-splicing (parent)
chain: AGUUGCUGCUGGGAGCUCCAGCACAGUGAAAUGGACAGAAGGGCAGAGCAA

Variants of: B1
Experiment: exon inclusion enrichment index; higher = more inclusion; WT1 exon 5 minigene, HEK293

Variant | exon inclusion enrichment index
AGUUAUAAUUGGGAGCUCCAGCACAGUGAAAUGGACAGAAGGGCAGAGCAA [G5A C6U U7A G8A C9U] | 0.0446
AGUUAUAAGUGGGAGCUCCAGCACAGUGAAAUGGACAGAAGGGCAGAGCAA [G5A C6U U7A G8A C9G] | 0.0475
AGUUAUAUAUGGGAGCUCCAGCACAGUGGUAUGGACAGAAGGGCAGAGCAA [G5A C6U U7A G8U C9A A29G A30U] | 0.00704
AGUUAUAUAUGGGAGCUCCAGCACAGUGGGAUGGACAGAAGGGCAGAGCAA [G5A C6U U7A G8U C9A A29G A30G] | 0.0286
AGUUAUAUAUGGGAGCUCCAGCACAGUGGCAUGGACAGAAGGGCAGAGCAA [G5A C6U U7A G8U C9A A29G A30C] | 0.0104
AGUUAUUGAUGGGAGCUCCAGCACAGUGAAAUGGACAGAAGGGCAGAGCAA [G5A C6U C9A] | 0.306
AGUUAUAUAUGGGAGCUCCGGCACAGUGAAAUGGACAGAAGGGCAGAGCAA [G5A C6U U7A G8U C9A A20G] | 0.102
AGUUAUAUAUGGGAGCUCCUGCACAGUGAAAUGGACAGAAGGGCAGAGCAA [G5A C6U U7A G8U C9A A20U] | 0.0779
AGUUAUAUAUGGGAGCUCCCGCACAGUGAAAUGGACAGAAGGGCAGAGCAA [G5A C6U U7A G8U C9A A20C] | 0.047
AGUUAUAGUUGGGAGCUCCAGCACAGUGAAAUGGACAGAAGGGCAGAGCAA [G5A C6U U7A C9U] | 0.0151
AGUUAUAGAUGGGAGCUCCAGCACAGUGAAAUGGACAGAAGGGCAGAGCAA [G5A C6U U7A C9A] | 0.0715
AGUUAUAGGUGGGAGCUCCAGCACAGUGAAAUGGACAGAAGGGCAGAGCAA [G5A C6U U7A C9G] | 0.0115
AGUUAUAUAUGGGAGCUCCGUCACAGUGAAAUGGACAGAAGGGCAGAGCAA [G5A C6U U7A G8U C9A A20G G21U] | 0.0713
AGUUAUAUAUGGGAGCUCCGACACAGUGAAAUGGACAGAAGGGCAGAGCAA [G5A C6U U7A G8U C9A A20G G21A] | 0.112
AGUUAUAUAUGGGAGCUCCGCCACAGUGAAAUGGACAGAAGGGCAGAGCAA [G5A C6U U7A G8U C9A A20G G21C] | 0.11
AGUUAUAUAUGGGCACUCCAGCACAGUGAAAUGGACAGAAGGGCAGAGCAA [G5A C6U U7A G8U C9A A14C G15A] | 0.00652
AGUUAUAUAUGGGCUCUCCAGCACAGUGAAAUGGACAGAAGGGCAGAGCAA [G5A C6U U7A G8U C9A A14C G15U] | 0.0114
AGUUAUAUAUGGGCCCUCCAGCACAGUGAAAUGGACAGAAGGGCAGAGCAA [G5A C6U U7A G8U C9A A14C G15C] | 0.0124
AGUUAUUCUCGGGAGCUCCAGCACAGUGAAAUGGACAGAAGGGCAGAGCAA [G5A C6U G8C C9U U10C] | 0.807
AGUUAUUACCGGGAGCUCCAGCACAGUGAAAUGGACAGAAGGGCAGAGCAA [G5A C6U G8A U10C] | 0.819
AGUUAUAUAUGGGAGCUCCAGCACGAUGAAAUGGACAGAAGGGCAGAGCAA [G5A C6U U7A G8U C9A A25G G26A] | 0.36
AGUUAUAUAUGGGAGCUCCAGCACGUUGAAAUGGACAGAAGGGCAGAGCAA [G5A C6U U7A G8U C9A A25G G26U] | 0.231
AGUUAUAUAUGGGAGCUCCAGCACGCUGAAAUGGACAGAAGGGCAGAGCAA [G5A C6U U7A G8U C9A A25G G26C] | 0.493
AGUUAUAUAUGGGGCCUCCAGCACAGUGAAAUGGACAGAAGGGCAGAGCAA [G5A C6U U7A G8U C9A A14G G15C] | 0.0123
AGUUAUAUAUGGGGUCUCCAGCACAGUGAAAUGGACAGAAGGGCAGAGCAA [G5A C6U U7A G8U C9A A14G G15U] | 0.00355
AGUUAUAUAUGGGGACUCCAGCACAGUGAAAUGGACAGAAGGGCAGAGCAA [G5A C6U U7A G8U C9A A14G G15A] | 0.0192

Variant | exon inclusion enrichment index
AGUUAUAUAUGGGAGCUCCAGCACAGUGUCAUGGACAGAAGGGCAGAGCAA [G5A C6U U7A G8U C9A A29U A30C] | 0.0463
AGUUAUAUAUGGGAGCUCCAGCACAGUGUGAUGGACAGAAGGGCAGAGCAA [G5A C6U U7A G8U C9A A29U A30G] | 0.0618
AGUUAUAUAUGGGAGCUCCAGCACAGUGUUAUGGACAGAAGGGCAGAGCAA [G5A C6U U7A G8U C9A A29U A30U] | 0.00971
AGUUAUAUAUGGGAGCUCCAGCACAGUGGAAUGGACAGAAGGGCAGAGCAA [G5A C6U U7A G8U C9A A29G] | 0.164
AGUUAUAUAUGGGAGCUCCAGCACAGUGUAAUGGACAGAAGGGCAGAGCAA [G5A C6U U7A G8U C9A A29U] | 0.0147
AGUUAUAUAUGGGAGCUCCAGCACAGUGCAAUGGACAGAAGGGCAGAGCAA [G5A C6U U7A G8U C9A A29C] | 0.0477
AGUUAUAUAUGGGAGCUCCAGCACAGUGACCUGGACAGAAGGGCAGAGCAA [G5A C6U U7A G8U C9A A30C A31C] | 0.126
AGUUAUAUAUGGGAGCUCCAGCACAGUGACGUGGACAGAAGGGCAGAGCAA [G5A C6U U7A G8U C9A A30C A31G] | 0.168
AGUUAUAUAUGGGAGCUCCAGCACAGUGACUUGGACAGAAGGGCAGAGCAA [G5A C6U U7A G8U C9A A30C A31U] | 0.0899
AGUUAUAACCGGGAGCUCCAGCACAGUGAAAUGGACAGAAGGGCAGAGCAA [G5A C6U U7A G8A U10C] | 0.863
AGUUAUAUAUGGGAGCUCCAGCGUAGUGAAAUGGACAGAAGGGCAGAGCAA [G5A C6U U7A G8U C9A A23G C24U] | 0.0127
AGUUAUAUAUGGGAGCUCCAGCGGAGUGAAAUGGACAGAAGGGCAGAGCAA [G5A C6U U7A G8U C9A A23G C24G] | 0.259
AGUUAUAUAUGGGAGCUCCAGCGAAGUGAAAUGGACAGAAGGGCAGAGCAA [G5A C6U U7A G8U C9A A23G C24A] | 0.238
AGUUAUAUAUGGGAGCUCCAGCACAGUGAAAUGGACAGAAGGGCAGAGCAA [G5A C6U U7A G8U C9A] | 0.074
AGUUAUAUAUGGGAGCUCCAGCACAGUGAACGGGACAGAAGGGCAGAGCAA [G5A C6U U7A G8U C9A A31C U32G] | 0.0628
AGUUAUAUAUGGGAGCUCCAGCACAGUGAACAGGACAGAAGGGCAGAGCAA [G5A C6U U7A G8U C9A A31C U32A] | 0.0278
AGUUAUAUAUGGGAGCUCCAGCACAGUGAACCGGACAGAAGGGCAGAGCAA [G5A C6U U7A G8U C9A A31C U32C] | 0.363
AGUUAUAGAAGGGAGCUCCAGCACAGUGAAAUGGACAGAAGGGCAGAGCAA [G5A C6U U7A C9A U10A] | 0.0444
AGUUAGGGCGGGGAGCUCCAGCACAGUGAAAUGGACAGAAGGGCAGAGCAA [G5A C6G U7G U10G] | 0.0189
AGUUAUAUAUGGGAGCUCCAGCACAGUGAAGUGGACAGAAGGGCAGAGCAA [G5A C6U U7A G8U C9A A31G] | 0.12
AGUUAUAUAUGGGAGCUCCAGCACAGUGAACUGGACAGAAGGGCAGAGCAA [G5A C6U U7A G8U C9A A31C] | 0.077
AGUUAUUGCUGGGAGCUCCAGCACAGUGAAAUGGACAGAAGGGCAGAGCAA [G5A C6U] | 0.0142
AGUUAUAUAUGGGAGCUCCAGCACAGUGAUGUGGACAGAAGGGCAGAGCAA [G5A C6U U7A G8U C9A A30U A31G] | 0.0609
AGUUAUAUAUGGGAGCUCCAGCACAGUGAUUUGGACAGAAGGGCAGAGCAA [G5A C6U U7A G8U C9A A30U A31U] | 0.0488
AGUUAUAUAUGGGAGCUCCAGCACAGUGAUCUGGACAGAAGGGCAGAGCAA [G5A C6U U7A G8U C9A A30U A31C] | 0.064
